Measured values reported in patent US20210220471A1, “METHODS OF USING PHARMACOLOGIC INHIBITORS OF TYPE 2 CYTOKINE SIGNALING TO TREAT OR PREVENT PANCREATIC CANCER” (Memorial Sloan Kettering Cancer Center, priority 2018, published 2021).
Entries after “also recorded” stand apart in the source; their conditions may differ.

B1: rIl-33: murine recombinant Il-33 (#580504, R&D Systems) (protein, UniProt Q8BVZ5 1-266, looked up)
Interleukin-33: MRPRMKYSNSKISPAKFSSTAGEALVPPCKIRRSQQKTKEFCHVYCMRLRSGLTIRKETSYFRKEPTKRYSLKSGTKHEENFSAYPRDSRKRSLLGSIQAFAASVDTLSIQGTSLLTQSPASLSTYNDQSVSFVLENGCYVINVDDSGKDQEQDQVLLRYYESPCPASQSGDGVDGKKLMVNMSPIKDTDIWLHANDKDYSVELQRGDVSPPEQAFFVLHKKSSDFVSFECKNLPGTYIGVKDNQLALVEEKDESCNNIMFKLSKI
B2: recombinant IL-4: recombinant IL-4 cytokine (protein, UniProt P05112 25-153, looked up)
Interleukin-4: HKCDITLQEIIKTLNSLTEQKTLCTELTVTDIFAASKNTTEKETFCRAATVLRQFYSHHEKDTRCLGATAQQFHRHKQLIRFLKRLDRNLWGLAGLNSCPVKEANQSTLENFLERLKTIMREKYSKCSS

Experiments:
[1] = tested on: mutant Kras pancreatic organoids; assay: Growth of mutant Kras pancreatic organoids with recombinant IL-4 / IL-13 (Cell Titer Glo); type: cell-based, mouse; details: pre-malignant mutant Kras G12D; for proliferation (Cell Titer Glo): 6-day growth; for proliferation (Cell Titer Glo) after cytokine pre-treatment: pre-treatment with the cytokines during 2 weeks
Method: Isolation, culture and genetic manipulation of pancreatic organoids. To isolate untransformed ductal organoids for the transplantable PDAC tumorigenesis model, normal pancreas from LSL-KrasG12D mice (pure Bl/6N background) minced and digested with 0.012% collagenase XI (C9407, Sigma-Aldrich) and 0.012% Dispase (17105041, Life Technologies) in HBSS with Mg^2+ and Ca^2+ (14025076, Thermo Fisher Scientific) at 37° C. for a maximum of 30 mins. The material was further digested with TrypLE (GIBCO) for 5 min at 37° C., washed twice with DMEM/F12 (Life Technologies) supplemented with 2 mM glutamine and penn-strep, embedded in growth factor reduced matrigel (Corning), and cultured in complete medium, as described in Boj et al 2014. For activation of mutant Kras, organoids haroburing the LSL-KrasG12D allele were transduced with Ad-mCherry-Cre (Vector Biolabs), and Cherry^+ cells were sorted from single cell organoid suspension by flow cytometry 36h thereafter. Resulting clones were assessed for LSL-KrasG12D recombination by genotyping PCR in genomic DNA using the following primers: 5′ gtc ttt ccc cag cac agt gc 3′ (SEQ ID NO: 19), 5′ ctc ttg cct acg cca cca get c 3′ (SEQ ID NO: 20), and 5′ agc tag cca cca tgg ctt gag taa gtc tgc a 3′ (SEQ ID NO: 21). Validated Cre-recombined clones were then subjected to CRISPR-based inactivation of Trp53 using the PX458 vector (Addgene #48138) and gRNA […] sequence (SEQ ID NO: 22). PX458-sgTrp53 was transduced into organoids by transient transfection using the spinoculation method previously described (O'Rourke et al., 2017), with the modification of using the Effectene transfection reagent (Qiagen). PX458-sgTrp53 introduced cells were sorted by GFP positivity with flow cytometry 36h post-transfection. p53 null status of targeted clones was validated by western blot, using anti-p53 antibody (CMS, Leica Microsystem) and anti-β-actin-peroxidase antibody (Sigma-Aldrich) as normalization control.
This activation was specific (i.e. not observed for many other cytokine receptors, nor during normal pancreas regeneration) and is associated with the emergence of multiple de novo ATAC peaks (FIG. 14B). Preliminary gain-of-function experiments in mutant Kras pancreatic organoids indicate that these druggable Th2 cytokine receptors are functional and modulate organoid growth in vitro (FIG. 14C).

[2] = tested on: Kras mutant (KC-GEMM) mice; assay: Recombinant Il-33 treatment of Kras mutant (KC-GEMM) mice; type: in vivo, mouse; details: for expression of cell fate / PanIN markers (Agr2, Muc6, Dclk1, Cpa1, Sox9) in mKate2+ pancreatic epithelial cells: KC mice, qRT-PCR, 21 days after treatment; for mutant KRAS-driven tumorigenesis / mucinous PanIN lesions (H&E, Alcian Blue, mKate2) / expansion of Dclk1+ cancer stem cells (Dclk1 immunofluorescence): KC-GEMM mice, 5 consecutive days; for mutant KRAS-driven tumorigenesis / mucinous PanIN lesions (H&E, Alcian Blue, mKate2): 1 ug/mouse i.p. once daily, analyzed 21 days thereafter, vs vehicle (PBS); for expansion of Dclk1+ cancer stem cells (Dclk1 immunofluorescence): 1 ug/mouse, day 21 post-treatment
Method: (§1) To compare the effects of tissue injury in the transcriptional and chromatin accessibility landscapes of mutant Kras-expressing or Kras wild-type pancreatic epithelial cells, KC;RIK (p48-Cre;RIK;LSLKrasG12D) or C;RIK (p48-Cre;RIK) male mice were treated with 8 hourly intraperitoneal injections of 80 μg/kg caerulein (Bachem) or PBS for 2 consecutive days, using littermates when possible. To characterize invasive disease, pancreatic ductal adenocarcinoma (PDAC) cells were isolated from cancer lesions arising in autochthonous transgenic models (KPflC;RIK (p48Cre;RIK;LSL-KrasG12D;p53fl/^+) that were macro-dissected away from pre-malignant tissue. As an orthogonal approach, C57Bl/6 female mice (Harlan) were subjected to for orthotopic transplantations with syngeneic ductal organoids harboruing mutant Kras and inactivated Trp53 gene (see below). Prior to transplantation, organoid cultures were dissociated with TrypLE (Gibco) after mechanical dissociation by pipetting and 1-2×10^5 cells in serum-free advanced DMEM/F12 (Life Technologies) supplemented with 2 mM glutamine and penn-strep were mixed 1:1 with growth factor reduced matrigel (Corning) and injected into the exposed pancreas of 8-10 weeks old C57B16/N mice using a Hamilton syringe fitted with a 26 gauge needle. For treatment with recombinant Il-33, 5 weeks-old C or KC mice were injected intraperitoneally once daily doses with 1 ug of murine recombinant Il-33 (#580504, R&D Systems) or vehicle (PBS) for 5 consecutive days.
Immunofluorescence, immunohistochemistry and histological analyses. Tissues were fixed overnight in 10% neutral buffered formalin (Richard-Allan Scientific), embedded in paraffin and cut into 5 μm sections. Slides were heated for 30 min at 55° C., deparaffinized, rehydrated with an alcohol series and subjected to antigen retrieval with citrate buffer (Vector Laboratories Unmasking Solution, H-3300) for 25 min in a pressure cooker set on high. Sections were treated with 3% H2O2 for 10 min followed by a wash in dionized water (for immunohistochemistry only), washed in PBS, then blocked in PBS/0.1% Triton X-100 containing 1% BSA. Primary antibodies were incubated overnight at 4° C. in blocking buffer. The following primary antibodies were used: mKate2 (Evrogen, AB233), GFP (ab13970, Abcam and 2956S, Cell Signaling Technology), Brd4 (HPA015055, Sigma-Aldrich), Myc (ab32072, Abcam), Cpa1 (R&D, AF2765), Clusterin (SCBT sc-6419), SOX9 (Millipore AB553), Amylase (sc-31869, Santa Cruz), Krt19 (Troma III, Developmental Studies Hybridoma Bank) and Il-33 (AF3626, R&D). For mKate2, GFP and cMyc immunohistochemistry, Vector ImmPress HRP kits and ImmPact DAB (Vector Laboratories) were used for secondary detection. Tissues were then counterstained with Haematoxylin or when indicated Alcian blue (pH 2.5) and 0.1% Nuclear Fast Red Solution, dehydrated and mounted with Permount (Fisher). The immunohistochemistry detection of Brd4 was performed at the Molecular Cytology Core Facility of Memorial Sloan Kettering Cancer Center using Discovery XT processor (Ventana Medical Systems-Roche). The tissue sections were blocked for 30 min in 10% normal goat serum, 2% BSA in PBS. A rabbit polyclonal anti-Brd4 antibody (HPA015055, Sigma-Aldrich) was used in 1 ug/ml (1:100) concentrations. The incubation with the primary antibody was done for 6 hours, followed by 60 minutes incubation with biotinylated goat anti-rabbit IgG (PK610, Vector labs) in 5.75 ug/mL concentration. Blocker D, Streptavidin-HRP and DAB detection kit (760-124, Ventana Medical Systems-Roche) were used according to the manufacturer instructions. Slides were counterstained with Hematoxylin (760-2021, Ventana), Bluing Reagent (760-2037, Ventana) and coverslipped with Permount (Fisher Scientific). […]

[3] = tested on: Kras-wild type (C-GEMM) mice; assay: Recombinant Il-33 treatment of Kras wild-type (C-GEMM) mice; type: in vivo, mouse; details: 21 days after treatment; for pancreas histology (H&E, Alcian Blue): same dosing
Method: as §1
Immunofluorescence, immunohistochemistry and histological analyses. Tissues were fixed overnight in 10% neutral buffered formalin (Richard-Allan Scientific), embedded in paraffin and cut into 5 μm sections. Slides were heated for 30 min at 55° C., deparaffinized, rehydrated with an alcohol series and subjected to antigen retrieval with citrate buffer (Vector Laboratories Unmasking Solution, H-3300) for 25 min in a pressure cooker set on high. Sections were treated with 3% H2O2 for 10 min followed by a wash in dionized water (for immunohistochemistry only), washed in PBS, then blocked in PBS/0.1% Triton X-100 containing 1% BSA. Primary antibodies were incubated overnight at 4° C. in blocking buffer. The following primary antibodies were used: mKate2 (Evrogen, AB233), GFP (ab13970, Abcam and 2956S, Cell Signaling Technology), Brd4 (HPA015055, Sigma-Aldrich), Myc (ab32072, Abcam), Cpa1 (R&D, AF2765), Clusterin (SCBT sc-6419), SOX9 (Millipore AB553), Amylase (sc-31869, Santa Cruz), Krt19 (Troma III, Developmental Studies Hybridoma Bank) and Il-33 (AF3626, R&D). For mKate2, GFP and cMyc immunohistochemistry, Vector ImmPress HRP kits and ImmPact DAB (Vector Laboratories) were used for secondary detection. […]

Molecule	proliferation (Cell Titer Glo) [1]	proliferation (Cell Titer Glo) after cytokine pre-treatment [1]	expression of cell fate / PanIN markers (Agr2, Muc6, Dclk1, Cpa1, Sox9) in mKate2+ pancreatic epithelial cells [2]	expression of cell fate / PanIN markers (Agr2, Muc6, Dclk1, Cpa1, Sox9) in mKate2+ pancreatic epithelial cells ([2]; listed as recombinant IL-33)	mutant KRAS-driven tumorigenesis / mucinous PanIN lesions (H&E, Alcian Blue, mKate2) [2]	mutant KRAS-driven tumorigenesis / mucinous PanIN lesions (H&E, Alcian Blue, mKate2) ([2]; listed as recombinant IL-33)	expansion of Dclk1+ cancer stem cells (Dclk1 immunofluorescence) ([2]; listed as Recombinant IL-33)	expansion of Dclk1+ cancer stem cells (Dclk1 immunofluorescence) ([2]; listed as recombinant IL-33)	expression of cell fate / PanIN markers in mKate2+ pancreatic epithelial cells [3]	expression of cell fate / PanIN markers in mKate2+ pancreatic epithelial cells ([3]; listed as recombinant IL-33)	pancreas histology (H&E, Alcian Blue) [3]	pancreas histology (H&E, Alcian Blue) ([3]; listed as recombinant IL-33)
IL-13: recombinant IL-13 cytokine	pro-proliferative effects	further enhanced	–	–	–	–	–	–	–	–	–	–
B1	–	–	selective effects	accelerates mutant KRAS-driven tumorigenesis	sufficient to trigger many of the tumor-promoting outputs of injury in the mutant Kras setting; also recorded: accelerated ADR with development of mucinous lesions	promoted tumorigenesis; also recorded: accelerates mutant KRAS-driven tumorigenesis; also recorded: enhanced tumorigenesis	sufficient to drive expansion of Dclk1^+ cancer stem cells in vivo	cancer stem cell expansion	no detectable effects	no effect	no detectable effects; also recorded: retain normal architecture	no effect
B2	pro-proliferative effects	further enhanced	–	–	–	–	–	–	–	–	–	–
